In the supplement of paper PMC10724198:
± gives the standard deviation of the averaged measurements.

Experiments:
[1] = test system: Saccharomyces cerevisiae; assay: protein stability index of tFT-peptide fusion (C-terminal peptide) (PSI (0-1 scale)); higher = more stable (slower turnover)
Procedure: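 MPS profiling in S. cerevisiae of the tFT-X12 degron library: putative degron peptides plus stable controls, 12 aa, fused to the C-terminus of a sfGFP-mCherry timer. Cells are FACS-sorted into 8 mCherry/sfGFP bins and deep-sequenced. PSI runs from 0 (unstable) to 1 (stable). Backgrounds are wild type, das1Δ and doa10Δ at 30 °C, and wild type, das1Δ, cdc34-1 and cdc53-1 at 37 °C; 2-3 technical replicates each.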

[2] = test system: Saccharomyces cerevisiae; assay: as above; conditions: genetic background: wild type; temperature: 30 C
[3] = genetic background: cdc34-1, temperature: 37 C
[4] = genetic background: cdc53-1, temperature: 37 C
[5] = genetic background: das1 deletion, temperature: 30 C
[6] = genetic background: das1 deletion, temperature: 37 C
[7] = genetic background: doa10 deletion, temperature: 30 C
[8] = genetic background: wild type, temperature: 30 C
[9] = genetic background: wild type, temperature: 37 C
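Note: PSI is a weighted mean of sequencing reads over stability bins, variants kept only with over 10 reads, mCherry proximal and sfGFP distal, peptide attached via GGGS linker.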

VGGLGWCWVCMA gave a protein stability index [1, 3] of 0.573 ± 0.041, a protein stability index [1, 4] of 0.718 ± 0.035 and a protein stability index [1, 5] of 0.595 ± 0.017. For the same sequence, the protein stability index [1, 6] was 0.75 ± 0.013, the protein stability index [1, 7] was 0.132 ± 0.01 and the protein stability index [1, 8] was 0.158 ± 0.023. For the same sequence, the protein stability index [1, 9] was 0.246 ± 0.0056 and the protein stability index [2] was 0.25 ± 0.016.

With VGIFKVCALVLR the protein stability index [1, 3] was 0.325 ± 0.019, the protein stability index [1, 4] was 0.296 ± 0.011 and the protein stability index [1, 5] was 0.324 ± 0.027. It also gave a protein stability index [1, 6] of 0.4622 ± 0.003, a protein stability index [1, 7] of 0.399 ± 0.0062 and a protein stability index [1, 8] of 0.335 ± 0.016. For the same sequence, the protein stability index [1, 9] was 0.446 ± 0.011 and the protein stability index [2] was 0.483 ± 0.0098.

For VGVSCVVCVCGV, the protein stability index [1, 3] was 0.493 ± 0.0071, the protein stability index [1, 4] was 0.471 ± 0.02 and the protein stability index [1, 5] was 0.289 ± 0.034. It also gave a protein stability index [1, 6] of 0.514 ± 0.0077, a protein stability index [1, 7] of 0.2604 ± 0.0024 and a protein stability index [1, 8] of 0.295 ± 0.017. It also gave a protein stability index [1, 9] of 0.4873 ± 0.0037 and a protein stability index [2] of 0.3704 ± 0.0011.

VGVVVAIGLVRM was tested, and the protein stability index [1, 3] was 0.508 ± 0.013, the protein stability index [1, 4] was 0.575 ± 0.032 and the protein stability index [1, 5] was 0.381 ± 0.041. For the same sequence, the protein stability index [1, 6] was 0.546 ± 0.0048, the protein stability index [1, 7] was 0.3423 ± 0.00054 and the protein stability index [1, 8] was 0.377 ± 0.03. It also gave a protein stability index [1, 9] of 0.512 ± 0.019 and a protein stability index [2] of 0.4849 ± 0.0037.

For VICSLFRYIMRL, the protein stability index [1, 3] was 0.414 ± 0.021, the protein stability index [1, 4] was 0.518 ± 0.0071 and the protein stability index [1, 5] was 0.571 ± 0.013. For the same sequence, the protein stability index [1, 6] was 0.6336 ± 0.0037, the protein stability index [1, 7] was 0.18 ± 0.019 and the protein stability index [1, 8] was 0.132 ± 0.0062. For the same sequence, the protein stability index [1, 9] was 0.134 ± 0.043 and the protein stability index [2] was 0.199 ± 0.0043.

VIFFEFFLSFGE showed a protein stability index [1, 3] of 0.267 ± 0.0089, a protein stability index [1, 4] of 0.481 ± 0.024 and a protein stability index [1, 5] of 0.281 ± 0.026. It also gave a protein stability index [1, 6] of 0.452 ± 0.026, a protein stability index [1, 7] of 0.253 ± 0.033 and a protein stability index [1, 8] of 0.32 ± 0.025. The protein stability index [1, 9] was 0.433 ± 0.0069 and the protein stability index [2] was 0.413 ± 0.0071.

With VIRIRLSCSVDV the protein stability index [1, 3] was 0.326 ± 0.04, the protein stability index [1, 4] was 0.42 ± 0.047 and the protein stability index [1, 5] was 0.323 ± 0.022. It also gave a protein stability index [1, 6] of 0.411 ± 0.0063, a protein stability index [1, 7] of 0.313 ± 0.023 and a protein stability index [1, 8] of 0.322 ± 0.021. It also gave a protein stability index [1, 9] of 0.387 ± 0.013 and a protein stability index [2] of 0.367 ± 0.026.

With VISVFAISTRVD the protein stability index [1, 3] was 0.489 ± 0.076, the protein stability index [1, 4] was 0.4901 ± 0.00049 and the protein stability index [1, 5] was 0.409 ± 0.057. For the same sequence, the protein stability index [1, 6] was 0.5675 ± 0.0051, the protein stability index [1, 7] was 0.398 ± 0.01 and the protein stability index [1, 8] was 0.414 ± 0.018. It also gave a protein stability index [1, 9] of 0.513 ± 0.066 and a protein stability index [2] of 0.475 ± 0.0055.

For VIVQSWEIIRLN, the protein stability index [1, 3] was 0.553 ± 0.055, the protein stability index [1, 4] was 0.71 ± 0.0093 and the protein stability index [1, 5] was 0.604 ± 0.022. It also gave a protein stability index [1, 6] of 0.7176 ± 0.0053, a protein stability index [1, 7] of 0.0878 ± 0.0043 and a protein stability index [1, 8] of 0.105 ± 0.026. For the same sequence, the protein stability index [1, 9] was 0.122 ± 0.0068 and the protein stability index [2] was 0.21 ± 0.018.

Sequence VKVKMKIIIIIK has a protein stability index [1, 3] of 0.243 ± 0.16, a protein stability index [1, 4] of 0.258 ± 0.16 and a protein stability index [1, 5] of 0.28 ± 0.044. The protein stability index [1, 6] was 0.416 ± 0.032, the protein stability index [1, 7] was 0.3087 ± 0.0006 and the protein stability index [1, 8] was 0.281 ± 0.087. For the same sequence, the protein stability index [1, 9] was 0.432 ± 0.012 and the protein stability index [2] was 0.341 ± 0.0073.

Work on VLGFRPLVFLCF yielded a protein stability index [1, 3] of 0.235 ± 0.058, a protein stability index [1, 4] of 0.252 ± 0.029 and a protein stability index [1, 5] of 0.324 ± 0.029. For the same sequence, the protein stability index [1, 6] was 0.4637 ± 0.0028, the protein stability index [1, 7] was 0.392 ± 0.011 and the protein stability index [1, 8] was 0.304 ± 0.013. It also gave a protein stability index [1, 9] of 0.392 ± 0.0027 and a protein stability index [2] of 0.3239 ± 0.0027.

With VLRACCDWGFLV the protein stability index [1, 3] was 0.53 ± 0.0055, the protein stability index [1, 4] was 0.696 ± 0.039 and the protein stability index [1, 5] was 0.655 ± 0.017. The protein stability index [1, 6] was 0.77382 ± 0.00011, the protein stability index [1, 7] was 0.108 ± 0.0016 and the protein stability index [1, 8] was 0.108 ± 0.03. For the same sequence, the protein stability index [1, 9] was 0.163 ± 0.024 and the protein stability index [2] was 0.161 ± 0.02.

VLRLLARRHAMV was tested, and the protein stability index [1, 3] was 0.577 ± 0.036, the protein stability index [1, 4] was 0.6735 ± 0.002 and the protein stability index [1, 5] was 0.614 ± 0.015. It also gave a protein stability index [1, 6] of 0.689 ± 0.013, a protein stability index [1, 7] of 0.148 ± 0.013 and a protein stability index [1, 8] of 0.145 ± 0.028. For the same sequence, the protein stability index [1, 9] was 0.251 ± 0.02 and the protein stability index [2] was 0.308 ± 0.017.

Sequence VMLFYVGSGVVS has a protein stability index [1, 3] of 0.654 ± 0.053, a protein stability index [1, 4] of 0.688 ± 0.038 and a protein stability index [1, 5] of 0.54 ± 0.032. It also gave a protein stability index [1, 6] of 0.685 ± 0.016, a protein stability index [1, 7] of 0.545 ± 0.023 and a protein stability index [1, 8] of 0.556 ± 0.02. It also gave a protein stability index [1, 9] of 0.671 ± 0.014 and a protein stability index [2] of 0.485 ± 0.11.

VPGCLGRFLFFL showed a protein stability index [1, 3] of 0.594 ± 0.025, a protein stability index [1, 4] of 0.6987 ± 0.0066 and a protein stability index [1, 5] of 0.573 ± 0.024. It also gave a protein stability index [1, 6] of 0.722 ± 0.029, a protein stability index [1, 7] of 0.201 ± 0.032 and a protein stability index [1, 8] of 0.218 ± 0.029. The protein stability index [1, 9] was 0.413 ± 0.029 and the protein stability index [2] was 0.29 ± 0.024.

VRFGYGRIVWDI gave a protein stability index [1, 3] of 0.706 ± 0.035, a protein stability index [1, 4] of 0.789 ± 0.048 and a protein stability index [1, 5] of 0.6514 ± 0.0055. It also gave a protein stability index [1, 6] of 0.808 ± 0.018, a protein stability index [1, 7] of 0.472 ± 0.015 and a protein stability index [1, 8] of 0.496 ± 0.032. The protein stability index [1, 9] was 0.68 ± 0.016 and the protein stability index [2] was 0.5 ± 0.1.

Work on VRGLGFRWVWGW yielded a protein stability index [1, 3] of 0.747 ± 0.034, a protein stability index [1, 4] of 0.762 ± 0.011 and a protein stability index [1, 5] of 0.664 ± 0.0089. For the same sequence, the protein stability index [1, 6] was 0.7668 ± 0.0056, the protein stability index [1, 7] was 0.666 ± 0.011 and the protein stability index [1, 8] was 0.668 ± 0.013. It also gave a protein stability index [1, 9] of 0.772 ± 0.018 and a protein stability index [2] of 0.711 ± 0.038.

Sequence VRHPVVVVRRVI has a protein stability index [1, 3] of 0.663 ± 0.017, a protein stability index [1, 4] of 0.746 ± 0.0067 and a protein stability index [1, 5] of 0.649 ± 0.035. It also gave a protein stability index [1, 6] of 0.70566 ± 0.00012, a protein stability index [1, 7] of 0.3516 ± 0.0032 and a protein stability index [1, 8] of 0.411 ± 0.025. It also gave a protein stability index [1, 9] of 0.576 ± 0.0099 and a protein stability index [2] of 0.508 ± 0.055.

For VRRFNVLLYVRG, the protein stability index [1, 3] was 0.459 ± 0.029, the protein stability index [1, 4] was 0.4921 ± 0.0032 and the protein stability index [1, 5] was 0.311 ± 0.027. For the same sequence, the protein stability index [1, 6] was 0.528 ± 0.0053, the protein stability index [1, 7] was 0.324 ± 0.0045 and the protein stability index [1, 8] was 0.321 ± 0.019. It also gave a protein stability index [1, 9] of 0.523 ± 0.012 and a protein stability index [2] of 0.425 ± 0.0063.

For VRTFAVSCLCVC, the protein stability index [1, 3] was 0.0897 ± 0.018, the protein stability index [1, 4] was 0.139 ± 0.034 and the protein stability index [1, 5] was 0.19 ± 0.019. It also gave a protein stability index [1, 6] of 0.23 ± 0.0066, a protein stability index [1, 7] of 0.126 ± 0.0024 and a protein stability index [1, 8] of 0.133 ± 0.013. It also gave a protein stability index [1, 9] of 0.128 ± 0.0014 and a protein stability index [2] of 0.301 ± 0.0037.
